Test results taken from publication PMC11294625, “The kinesin-3 KIF1C undergoes liquid-liquid phase separation for accumulation of specific transcripts at the cell periphery”.

Tests used:
KIF1C(CC4+IDR)-mNG [1] = target: T1, KIF1C(CC4+IDR)-mNG (Homo sapiens, UniProt O43896 785-1103); assay: in vitro condensate recruitment (fluorescence microscopy); 120-600 nM RNA, 100 nM protein, 100 mM NaCl; enriched (condensates inhibited at uM RNA); 100 nM KIF1C(CC4+IDR)-mNG in 100 mM NaCl buffer, no crowding agent; pH and temperature of the assay not given in the material; details: protein: recombinant; tags: C-terminal mNeonGreen; His-SUMO removed by TEV; chain copies: 2; label: 5'-Cy5; single strand
T1 sequence: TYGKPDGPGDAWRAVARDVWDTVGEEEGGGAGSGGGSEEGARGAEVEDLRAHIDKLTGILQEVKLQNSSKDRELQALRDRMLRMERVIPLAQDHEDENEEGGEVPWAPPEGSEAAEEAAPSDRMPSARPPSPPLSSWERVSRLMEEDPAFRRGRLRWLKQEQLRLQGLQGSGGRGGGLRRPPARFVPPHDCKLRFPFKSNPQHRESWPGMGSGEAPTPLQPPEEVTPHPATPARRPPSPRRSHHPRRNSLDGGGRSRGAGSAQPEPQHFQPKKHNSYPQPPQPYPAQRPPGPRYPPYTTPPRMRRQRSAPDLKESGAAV

KIF1C(CC4+IDR)-mNG [2] = target: T1, KIF1C(CC4+IDR)-mNG; assay: in vitro condensate recruitment (fluorescence microscopy); 15-60 nM RNA, 100 nM protein, 100 mM NaCl; selectively enriched in condensates; 100 nM KIF1C(CC4+IDR)-mNG in 100 mM NaCl buffer, no crowding agent; pH and temperature of the assay not given in the material; details: protein: recombinant; tags: C-terminal mNeonGreen; His-SUMO removed by TEV; chain copies: 2; label: 5'-Cy5; single strand

## AAAAAAAAAAAAA (ssRNA, methylation at each nucleotide (printed mA, probably 2'-O-methyl)) [polyA RNA oligo, Cy5-A13]
KIF1C(CC4+IDR)-mNG [1]
  binding result: binds

## GUGUGUGUGUGU (ssRNA, methylation at each nucleotide (printed mG/mU, probably 2'-O-methyl)) [GU-rich RNA oligo, Cy5-(GU)6]
KIF1C(CC4+IDR)-mNG [2]
  binding result: binds
